Test results reported in PMC8550936.

Columns and labels:
[1] = target: Venezuelan equine encephalitis virus (VEEV) virus-like particles (Venezuelan equine encephalitis virus, strain TC-83) (UniProt P09592); assay: cryo-EM structure
[2] = target: Venezuelan equine encephalitis virus (VEEV) virus-like particles (Venezuelan equine encephalitis virus, strain TC-83) (UniProt P09592); assay: SPR; Biacore T200; […]; 30 µl/min, 25 °C, HBS-P plus 1 mM CaCl2; global 1:1 fit; […]

LDLRAD3(D1), cleaved monomeric ectodomain of mouse low-density lipoprotein receptor class A domain-c, sequence (A2AR95 18-70): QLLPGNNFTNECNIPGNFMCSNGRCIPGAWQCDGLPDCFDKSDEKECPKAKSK
LDLRAD3(D1+D2), cleaved monomeric ectodomain of mouse LDLRAD3, domains 1 and 2, sequence (A2AR95 18-112): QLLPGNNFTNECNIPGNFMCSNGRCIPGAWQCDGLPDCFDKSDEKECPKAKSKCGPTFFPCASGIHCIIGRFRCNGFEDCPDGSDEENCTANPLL

Substance | stoichiometry N (molecules of LDLRAD3(D1) per VLP) [1] | Kd [2] [µM]
LDLRAD3(D1), cleaved monomeric ectodomain of mouse low-density lipoprotein receptor class A domain-c (from UniProt A2AR95 18-70) (domain or fragment) | 240 | 
LDLRAD3(D1+D2), cleaved monomeric ectodomain of mouse LDLRAD3, domains 1 and 2 (from UniProt A2AR95 18-112) (domain or fragment) |  | 0.05
